Results as given in article PMC12241816.

Target: T1, recombinant KDM5B (human), Q9UGL1
T1 chain: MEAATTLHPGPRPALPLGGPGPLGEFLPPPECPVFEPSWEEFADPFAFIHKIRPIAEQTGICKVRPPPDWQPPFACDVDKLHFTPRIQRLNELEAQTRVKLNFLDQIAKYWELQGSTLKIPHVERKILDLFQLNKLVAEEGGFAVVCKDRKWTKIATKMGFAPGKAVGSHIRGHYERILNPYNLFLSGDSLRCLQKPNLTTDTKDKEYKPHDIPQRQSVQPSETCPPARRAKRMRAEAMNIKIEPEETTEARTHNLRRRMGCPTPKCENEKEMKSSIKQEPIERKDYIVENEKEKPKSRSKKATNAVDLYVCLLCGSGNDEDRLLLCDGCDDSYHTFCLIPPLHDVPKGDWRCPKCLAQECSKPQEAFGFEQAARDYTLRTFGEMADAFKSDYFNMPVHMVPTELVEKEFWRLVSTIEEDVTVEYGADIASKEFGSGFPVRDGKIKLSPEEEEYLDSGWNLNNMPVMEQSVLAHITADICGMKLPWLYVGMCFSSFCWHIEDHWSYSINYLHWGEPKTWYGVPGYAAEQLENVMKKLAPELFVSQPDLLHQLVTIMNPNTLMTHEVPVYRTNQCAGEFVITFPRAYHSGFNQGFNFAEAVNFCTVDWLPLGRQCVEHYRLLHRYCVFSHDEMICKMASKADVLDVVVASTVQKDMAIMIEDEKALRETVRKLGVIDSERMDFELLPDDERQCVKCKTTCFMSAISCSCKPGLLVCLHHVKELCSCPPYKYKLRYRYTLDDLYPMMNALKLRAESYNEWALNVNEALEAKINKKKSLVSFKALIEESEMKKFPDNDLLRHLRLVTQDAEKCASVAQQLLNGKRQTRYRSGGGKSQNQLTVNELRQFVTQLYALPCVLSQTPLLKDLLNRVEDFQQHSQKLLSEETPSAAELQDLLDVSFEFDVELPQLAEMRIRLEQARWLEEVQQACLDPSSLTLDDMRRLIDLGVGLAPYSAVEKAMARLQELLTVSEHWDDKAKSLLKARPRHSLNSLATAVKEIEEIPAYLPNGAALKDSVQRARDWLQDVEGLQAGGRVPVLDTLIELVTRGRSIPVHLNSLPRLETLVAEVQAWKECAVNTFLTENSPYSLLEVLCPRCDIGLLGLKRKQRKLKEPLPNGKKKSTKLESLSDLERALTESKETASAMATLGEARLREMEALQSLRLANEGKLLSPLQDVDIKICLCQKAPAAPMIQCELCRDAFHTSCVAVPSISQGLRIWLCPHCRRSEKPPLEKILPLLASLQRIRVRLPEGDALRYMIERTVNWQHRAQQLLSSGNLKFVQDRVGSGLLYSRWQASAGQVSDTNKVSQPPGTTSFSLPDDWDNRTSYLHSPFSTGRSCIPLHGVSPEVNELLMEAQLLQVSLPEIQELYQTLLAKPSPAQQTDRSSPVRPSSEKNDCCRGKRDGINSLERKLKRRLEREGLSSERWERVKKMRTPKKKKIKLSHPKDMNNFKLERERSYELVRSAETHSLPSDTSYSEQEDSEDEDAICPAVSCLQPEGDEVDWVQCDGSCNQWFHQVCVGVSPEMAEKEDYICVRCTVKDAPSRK
Assay: native gel or EMSA
Settings: remark: other sources report otherwise

B1: recombinant KDM5B, Q9UGL1 1-1544 (natural protein)
chain: T1 chain
Which stoichiometry N does the source give for B1 here?
Its stoichiometry N is 2.
